B1: Amphiphysin (Homo sapiens), P49418 (parent)
chain: MADIKTGIFAKNVQKRLNRAQEKVLQKLGKADETKDEQFEEYVQNFKRQEAEGTRLQRELRGYLAAIKGMQEASMKLTESLHEVYEPDWYGREDVKMVGEKCDVLWEDFHQKLVDGSLLTLDTYLGQFPDIKNRIAKRSRKLVDYDSARHHLEALQSSKRKDESRISKAEEEFQKAQKVFEEFNVDLQEELPSLWSRRVGFYVNTFKNVSSLEAKFHKEIAVLCHKLYEVMTKLGDQHADKAFTIQGAPSDSGPLRIAKTPSPPEEPSPLPSPTASPNHTLAPASPAPARPRSPSQTRKGPPVPPLPKVTPTKELQQENIISFFEDNFVPEISVTTPSQNEVPEVKKEETLLDLDFDPFKPEVTPAGSAGVTHSPMSQTLPWDLWTTSTDLVQPASGGSFNGFTQPQDTSLFTMQTDQSMICNLAESEQAPPTEPKAEEPLAAVTPAVGLDLGMDTRAEEPVEEAVIIPGADADAAVGTLVSAAEGAPGEEAEAEKATVPAGEGVSLEEAKIGTETTEGAESAQPEAEELEATVPQEKVIPSVVIEPASNHEEEGENEITIGAEPKETTEDAAPPGPTSETPELATEQKPIQDPQPTPSAPAMGAADQLASAREASQELPPGFLYKVETLHDFEAANSDELTLQRGDVVLVVPSDSEADQDAGWLVGVKESDWLQYRDLATYKGLFPENFTRRLD
partner: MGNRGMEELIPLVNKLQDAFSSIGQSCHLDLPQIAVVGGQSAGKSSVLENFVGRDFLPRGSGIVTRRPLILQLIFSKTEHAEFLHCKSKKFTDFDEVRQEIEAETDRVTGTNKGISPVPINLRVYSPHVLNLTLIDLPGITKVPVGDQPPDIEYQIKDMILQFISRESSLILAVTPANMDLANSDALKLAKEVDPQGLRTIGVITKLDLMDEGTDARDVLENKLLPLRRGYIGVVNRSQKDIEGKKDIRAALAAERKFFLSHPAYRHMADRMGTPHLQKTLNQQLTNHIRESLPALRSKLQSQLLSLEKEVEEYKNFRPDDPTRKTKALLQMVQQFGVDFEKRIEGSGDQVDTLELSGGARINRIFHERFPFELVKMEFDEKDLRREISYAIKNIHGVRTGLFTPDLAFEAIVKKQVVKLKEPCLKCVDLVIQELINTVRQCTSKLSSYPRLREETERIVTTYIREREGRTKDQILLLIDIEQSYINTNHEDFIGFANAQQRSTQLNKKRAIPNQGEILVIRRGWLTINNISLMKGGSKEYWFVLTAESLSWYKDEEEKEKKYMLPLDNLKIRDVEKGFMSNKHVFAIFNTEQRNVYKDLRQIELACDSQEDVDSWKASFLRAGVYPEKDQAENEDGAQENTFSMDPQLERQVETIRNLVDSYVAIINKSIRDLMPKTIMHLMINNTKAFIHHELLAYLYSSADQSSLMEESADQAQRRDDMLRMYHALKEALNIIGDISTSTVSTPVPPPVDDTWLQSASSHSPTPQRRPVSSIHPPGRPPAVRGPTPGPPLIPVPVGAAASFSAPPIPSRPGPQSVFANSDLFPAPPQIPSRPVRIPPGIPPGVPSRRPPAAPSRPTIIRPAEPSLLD

Variants of: B1
Details: with dyn2_human DNM2, P50570

Variant | effect of a mutation on the interaction
P687L | disrupting interaction
G684R | disrupting interaction

— IntAct's records for PubMed 16696976
